In patent US20210130459A1 (YISSUM RESEARCH DEVELOPMENT COMPANY OF THE HEBREW …, published 2021):

Key:
[1] = molecular target: human Nectin4-Ig (Nectin4-Fc fusion protein) (human) (UniProt Q96NY8); assay: microscale thermophoresis with fluorophore-labeled human Nectin4-Ig
[2] = molecular target: T1, murine Nectin4 expressed on cells (murine, UniProt Q8R007 31-508); assay: FACS staining of RAJI cells transfected with murine Nectin4
T1 construct: whole, on cells; also called mNectin4
T1 sequence (looked up): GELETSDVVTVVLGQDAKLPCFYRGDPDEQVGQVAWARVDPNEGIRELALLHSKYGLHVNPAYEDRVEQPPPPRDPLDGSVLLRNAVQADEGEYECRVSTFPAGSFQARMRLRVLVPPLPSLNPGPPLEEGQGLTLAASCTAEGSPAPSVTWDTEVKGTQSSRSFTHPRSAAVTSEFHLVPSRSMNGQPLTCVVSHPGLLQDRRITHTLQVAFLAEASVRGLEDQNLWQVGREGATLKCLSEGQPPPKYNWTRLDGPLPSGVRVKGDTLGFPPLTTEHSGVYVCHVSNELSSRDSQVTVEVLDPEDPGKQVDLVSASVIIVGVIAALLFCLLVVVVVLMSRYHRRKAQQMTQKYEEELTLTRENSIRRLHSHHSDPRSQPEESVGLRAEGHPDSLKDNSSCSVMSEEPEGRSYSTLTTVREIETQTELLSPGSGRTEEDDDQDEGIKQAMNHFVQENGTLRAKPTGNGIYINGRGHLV
Procedure: (A) Western blots of RAJI cells transfected with murine Nectin4 (indicated as mNectin4) and detected with commercial anti-murine Nectin4 mAb (Clone 356704 which doesn't work for flow cytometry). Expression was compared to RAJI cells expressing empty vector (indicated as Empty). Staining for hGAPDH was used as loading control. (B-C) FACS staining of RAJI cells transfected with murine Nectin4 (black line histograms). Cells were stained with 0.2 μg of (B) clone hNec4.01 or (C) clone hNec4.05.
RAJI cells were transfected with murine Nectin4 (black line histograms). First, RAJI cells transfected with murine Nectin4 lysates was used in Western blot assay with a commercial anti murine Nectin4 mAb (Clone 356704) in order to verify murine Nectin4 expression (A). Next, the cells were stained with 0.2 μg of (B) clone hNec4.01 or (C) clone hNec4.05.

[3] = molecular target: T2, human Nectin4 expressed on cells (human, UniProt Q96NY8 32-510); assay: FACS blocking assay, RAJI cells transfected with human Nectin4, 1 µg clone, then 3 µg Nectin1-Ig; blocked ligand Nectin1-Ig
T2 construct: whole, on cells; also called PVRL4; native human Nectin-4
T2 sequence (looked up): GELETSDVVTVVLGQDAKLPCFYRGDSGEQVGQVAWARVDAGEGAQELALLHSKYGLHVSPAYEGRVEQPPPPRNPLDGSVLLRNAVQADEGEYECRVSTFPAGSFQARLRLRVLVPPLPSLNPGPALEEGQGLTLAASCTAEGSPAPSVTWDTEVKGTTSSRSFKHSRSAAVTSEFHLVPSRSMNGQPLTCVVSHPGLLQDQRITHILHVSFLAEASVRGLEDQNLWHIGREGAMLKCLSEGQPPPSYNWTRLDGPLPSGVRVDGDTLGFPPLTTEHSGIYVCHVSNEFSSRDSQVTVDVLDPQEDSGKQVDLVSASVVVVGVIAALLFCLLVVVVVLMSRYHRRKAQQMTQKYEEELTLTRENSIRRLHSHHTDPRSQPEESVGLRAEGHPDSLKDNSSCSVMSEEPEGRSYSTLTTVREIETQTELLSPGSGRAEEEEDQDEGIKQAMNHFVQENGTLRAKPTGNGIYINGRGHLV
Procedure: FIGS. 6A-6C Blocking of Nectin4-Nectin1 interactions. (A-B) FACS staining of RAJI cells transfected with human-Nectin4. Cells were pre-incubated with 1 μg of (A) clone hNec4.01, or (B) clone hNec4.05 and then incubated with 3 μg of Nectin1-Ig (black line histograms). Staining without blocking appears as gray line. Grey filled histograms are background control staining of secondary antibody only. (C) Mean Fluorescence Intensity (MFI) values of FACS staining of A and B.
For staining of human TIGIT-Ig or human Nectin1-Ig, cells were incubated on ice for 1 hour with 3 μg of TIGIT-Ig per 100,000 cells. Detection was performed with a secondary Alexa Fluor 647 anti-human (Jackson ImmunoResearch) for 30 min on ice. For blocking experiments cells were pre-incubated with 1 μg of the indicated antibody prior to the TIGIT-Ig or human Nectin1-Ig staining. In some cases, cells were incubated with 8 ug/ml of the indicated Ab together with human TIGIT-Ig or human Nectin-1-Ig (at 20 ug/ml). Detection of ligand binding was performed with a secondary Alexa Fluor 647 anti-human Ab (Jackson ImmunoResearch).
The ability to the anti-Nectin4 to block Nectin4-Nectin1 interactions was also determined. […] Cells were Pre-incubated with 1 μg of (FIG. 6A) clone hNec4.01 or (FIG. 6B) clone hNec4.05 and then incubated with 3 μg of Nectin1-Ig (black line). Staining without blocking appears as gray line. […]

[4] = molecular target: T1, murine Nectin4 expressed on cells; assay: FACS titration on CHO cells transfected with murine Nectin-4, compared with MDA-MD-453 cells
Procedure: (§1) FIGS. 8A-8C Antibody clones hNec4.05 and hNec4.11 binding to cell surface Nectin-4. (A) Antibody binding to Nectin-4 expressed on the human cell line MDA-MD-453 was evaluated by FACS analysis. […] (B) Antibody binding to CHO cells transfected with Cynomolgus (Cyno)-Nectin-4 and analyzed as in A. (C) Antibody binding to CHO cells transfected with murine-Nectin-4 and analyzed as in A. ND—not detected.
(§2) Binding of murine anti-human Nectin-4 clones hNec4.05 and hNec4.11 to Nectin-4 expressed on the human cell line MDA-MD-453 was evaluated by FACS analysis. […] FIG. 8B depicts antibody binding to CHO cells transfected with Cynomolgus (Cyno)-Nectin-4 and FIG. 8C depicts antibody binding to CHO cells transfected with murine-Nectin-4. […] This may be important for pre-clinical studies of the Ab.

[5] = molecular target: T2, human Nectin4 expressed on cells; assay: FACS titration (20-0.01 nM) on the human cell line titled 'MDA-MD-543' on the sheet (MDA-MD-453 in the legend)
Procedure: as §1, §2

[6] = molecular target: T2, human Nectin4 expressed on cells; assay: FACS titration on MDA-MD-453 cells
Procedure: as §1, §2

B1: monoclonal antibody hNec4.05 (antibody, IgG1, V domains shown)
VH: QVQLQQSGPELVKPGASVRISCKASGYTFTTYYIHWVKQRPGQGLEWIGWIYPGNVNTKNNEKFKVKATLTADKSSSTAYMQLSSLTSEDSAVYFCARSNPYVMDYWGQGTSVTVSS
VL: SIVMTQTPKFLLVSAGDRVTITCKASQSVSNDVAWYQQKPGQSPKLLIYYASNRYTGVPDRFTGSGYGTDFTFTISAVQAEDLAVYFCQQDYSSPYTFGGGTKLEIK
notes: also called Nectin4.05; Clone 5
- Kd [1]: 272 pM
- binding result [2]: no binding (tested: 0.2 µg)
- binding result [3]: binds

B2: monoclonal antibody hNec4.11 (antibody, V domains shown)
VH: QVQLQQSGPELVKPETSVKISCKASGYTFTSYYIHWVKQRPGQGLEWIGWIYPGNVNTKYNERFKGKATLTADKSSNTAHMQLTSLTSEDSAVYFCARSNPYVMDYWGQGTSVTVSS
VL: SIVMTQTPKFLLVSAGDRVTITCKASQSVNNDVAWYQQKPGLSPELLMYYASNRFTGVPDRFTGSGYGTDFTFTISSVQAEDLAIYFCQQAYRSPYTFGGGTKLEIQ
notes: also called Nectin4.11; clone 11
- fold EC50 against the EC50 for the human target [4]: ~10 fold
- binding result [5]: binds

B3: chimeric clone hNec4.11hIgG1 (antibody, V domains shown)
VH: QVQLQQSGPELVKPETSVKISCKASGYTFTSYYIHWVKQRPGQGLEWIGWIYPGNVNTKYNERFKGKATLTADKSSNTAHMQLTSLTSEDSAVYFCARSNPYVMDYWGQGTSVTVSS
VL: SIVMTQTPKFLLVSAGDRVTITCKASQSVNNDVAWYQQKPGLSPELLMYYASNRFTGVPDRFTGSGYGTDFTFTISSVQAEDLAIYFCQQAYRSPYTFGGGTKLEIQ
notes: also called human IgG1 chimeric Ab clone hNec4.11; chimeric version of hNec4.11
- binding result [6]: binds

B4: chimeric clone hNec4.05hIgG1 (antibody, V domains shown)
VH: QVQLQQSGPELVKPGASVRISCKASGYTFTTYYIHWVKQRPGQGLEWIGWIYPGNVNTKNNEKFKVKATLTADKSSSTAYMQLSSLTSEDSAVYFCARSNPYVMDYWGQGTSVTVSS
VL: SIVMTQTPKFLLVSAGDRVTITCKASQSVSNDVAWYQQKPGQSPKLLIYYASNRYTGVPDRFTGSGYGTDFTFTISAVQAEDLAVYFCQQDYSSPYTFGGGTKLEIK
notes: also called human IgG1 chimeric Ab clone hNec4.05; chimeric version of hNec4.05
- binding result [6]: binds

B5: monoclonal antibody hNec4.01 (antibody, IgG1, V domains shown)
VH: EVQLQQSGPELVKPGASVKIACRASGYTFTAYNIHWVSQRHGKSLEWIGYIYPNNGGSGYNQKFMNKATLTVDHSSNTAYMELRSLTSEDSAVYYCAIFDYDEAWFIYWGQGTLVTVSA
VL: ENVLTQSPEIMSASPGEEVTMTCSASSSVSYMHWFQQKSTISPKLWIYDTSKLASGVPGRFSGSGSGKSYSLTIRNMEAEDVATYYCFQGSGSPYTFGGGTKLEIK
notes: also called Nectin4.01; Clone 1
- Kd [1]: 107 pM
- binding result [2]: no binding (tested: 0.2 µg)
- binding result [3]: binds
